Data: US20210347900A1

Key:
[1] = molecular target: recombinant human LOX1 (R&D Systems) (human) (UniProt P78380); experiment: competition with biotin CRP on plate-bound recombinant human LOX1, DELFIA
[2] = molecular target: human LOX1 on cells (human LOX1 transfected CHO TREX cells) (human) (UniProt P78380); experiment: cell-based or functional assay
[3] = molecular target: human LOX1 on cells (human LOX1 transfected CHO TREX cells) (human) (UniProt P78380); experiment: competition with DyLight 649 oxLDL on human LOX1 CHO TREX cells, FMAT
[4] = molecular target: human LOX1 on cells (human LOX1 transfected CHO TREX cells) (human) (UniProt P78380); experiment: competition with DyLight 649 AGE-BSA on human LOX1 CHO TREX cells, FMAT

IC50 (read off the curve) [1]: 10 nM
IC50 of inhibition of Cypher 5E oxLDL internalization in hLOX1 CHO TREX cells (row label not given; assay assigned by block order of Table 5) [2]: 2.85 nM
IC50 of inhibition of oxLDL-dependent ROS generation in hLOX1 CHO TREX cells (row label not given; assay assigned by block order of Table 5) [2]: 10.1 nM
IC50 (read off the curve) [3]: 3 nM
IC50 (read off the curve) [4]: 2 nM
Substance: 23C11, commercially available mouse anti-LOX-1 antibody
